Experimental findings from patent US20110002929A1 (Ablynx, published 2011) are described below.

The target of experiment [1] is T1, human RANK-L (human, UniProt O14788 140-317, limits assumed).
T1 construct: Soluble protein, used coated, biotinylated or labelled in ELISA, AlphaScreen, FMAT and Biacore; also called hRANK-L; soluble human RANK-L
T1 sequence (looked up): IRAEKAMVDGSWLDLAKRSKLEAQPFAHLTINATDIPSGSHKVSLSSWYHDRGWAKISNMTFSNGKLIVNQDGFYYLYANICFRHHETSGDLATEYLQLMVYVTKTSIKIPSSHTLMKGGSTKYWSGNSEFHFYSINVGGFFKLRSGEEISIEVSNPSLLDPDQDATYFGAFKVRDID
The experiment in a line: AlphaScreen, biotin-hRANK-L / RANK-huFc beads. In general terms: Alpha assays give light when donor and acceptor beads are brought close together.

The target in experiment [2] is T1, human RANK-L. The experiment in a line: FMAT, ALEXA647-hRANK-L / RANK on HEK293T cells.
Experiment [3] deals with T1, human RANK-L. The experiment in a line: AlphaScreen, biotin-hRANK-L / RANK-huFc beads. This is another data set of the same source.
Experiment [4] has as its target T1, human RANK-L. Kind of experiment: SPR Biacore 3000, hRANK-L on CM5, 100 nM Nanobody. As to the method:
(§1) Binding kinetics of the humanized versions of Nanobodu RANL13 were also analysed by Surface Plasmon Resonance (Biacore 3000). […] Nanobody binding was assessed at one concentration (100 nM). Each Nanobody was injected for 4 minutes at a flow rate of 45 μl/min to allow binding to chip-bound antigen. Next, binding buffer without Nanobody was sent over the chip at the same flow rate to allow spontaneous dissociation of bound Nanobody.

Experiment [5] deals with T1, human RANK-L. The experiment in a line: SPR Biacore 3000, hRANK-L on CM5, 100 nM Nanobody; only indicative (one concentration). The protocol:
as §1
On the technique in general: In SPR one partner is held on a chip, and binding of the other changes the refractive index at the surface.

What is called IC50 is the concentration at which inhibition is half-maximal. High values mean a need for much substance, low ones inhibition by little substance. The term koff denotes a measure of how fast the partners let go of each other. A lower koff goes with a long-lived complex. As usually defined, the Kd is the free concentration of one partner at which half of the binding sites on the other are occupied at equilibrium, for simple one-to-one binding. Low values mean higher affinity, high ones lower affinity. A word on the kon: it is the second-order rate constant of association. A low value points to slower complex formation.

B1: RANKL182biv (VHH)
chain: EVQLVESGGGLVQAGGSLRLSCAASGRTFSRSAMGWFRQAPGKEREFVGFITGSGGTTYYGESVKGRFTISRDNAQNPVYLQMNSLKPEDTAVYYCGVYRRTYISSTYSESSEYDYWGQGTQVTVSSGGGGSGGGGSGGGGSGGGGSEVQLVESGGGLVQAGGSLRLSCAASGRTFSRSAMGWFRQAPGKEREFVGFITGSGGTTYYGESVKGRFTISRDNAQNPVYLQMNSLKPEDTAVYYCGVYRRTYISSTYSESSEYDYWGQGTQVTVSS
notes: Bivalent Nanobody; also called RANKL18-20GS-RANKL18
In the case of B1, the results for the IC50 in experiment [1] and in experiment [2] were 89 pM and 76 pM, respectively.

B2: RANKL18hum6Bi_25 (VHH)
chain: EVQLVESGGGLVQPGGSLRLSCAASGRTFSRSAMGWFRQAPGKGREFVGFITGSGGTTYYADSVKGRFTISRDNAQNPVYLQMNSLRPEDTAVYYCAVYRRTYISSTYSESSEYDYWGQGTLVTVSSGGGGSGGGGSGGGGSGGGGSGGGGSEVQLVESGGGLVQPGGSLRLSCAASGRTFSRSAMGWFRQAPGKGREFVGFITGSGGTTYYADSVKGRFTISRDNAQNPVYLQMNSLRPEDTAVYYCAVYRRTYISSTYSESSEYDYWGQGTLVTVSS
notes: Bivalent humanized Nanobody; also called RANKL18Hum6-25GS-RANKL18Hum6
Take B2: the half-maximal inhibitory concentration (IC50) stood at 100 pM in experiment [1] and 38 pM in experiment [2].

B3: RANKL92biv (VHH)
chain: EVQLVESGGGLVQAGGSLRLTCAASGRTFRSYAMGWFRQAPGKEREFVAAINYSGGSTNYADSVKGRFTISRDNAKNTLYLQMNSLEPEDTAVYYCAAGSGYASLSYYSTERAYTYWGQGTQVTVSSGGGGSGGGGSGGGGSGGGGSEVQLVESGGGLVQAGGSLRLTCAASGRTFRSYAMGWFRQAPGKEREFVAAINYSGGSTNYADSVKGRFTISRDNAKNTLYLQMNSLEPEDTAVYYCAAGSGYASLSYYSTERAYTYWGQGTQVTVSS
notes: Bivalent Nanobody; also called RANKL9-20GS-RANKL9
On to B3, for which the IC50 in experiment [1] came to 70 pM; in experiment [2], 32 pM.

B4: RANKL91biv (VHH)
chain: EVQLVESGGGLVQAGGSLRLTCAASGRTFRSYAMGWFRQAPGKEREFVAAINYSGGSTNYADSVKGRFTISRDNAKNTLYLQMNSLEPEDTAVYYCAAGSGYASLSYYSTERAYTYWGQGTQVTVSSGGGGSGGGSEVQLVESGGGLVQAGGSLRLTCAASGRTFRSYAMGWFRQAPGKEREFVAAINYSGGSTNYADSVKGRFTISRDNAKNTLYLQMNSLEPEDTAVYYCAAGSGYASLSYYSTERAYTYWGQGTQVTVSS
notes: Bivalent Nanobody; also called RANKL9-9GS-RANKL9
As to B4, the results for the half-inhibitory concentration (IC50) in experiment [1] and in experiment [2] were 153 pM and 90 pM, respectively.

B5: RANKL131 (VHH)
chain: EVQLVESGGGLVQAGGSLRLSCAASGRTFRSYPMGWFRQAPGKEREFVASITGSGGSTYYADSVKGRFTISRDNAKNTVYLQMNSLRPEDTAVYSCAAYIRPDTYLSRDYRKYDYWGQGTQVTVSSGGGGSGGGSEVQLVESGGGLVQAGGSLRLSCAASGRTFRSYPMGWFRQAPGKEREFVASITGSGGSTYYADSVKGRFTISRDNAKNTVYLQMNSLRPEDTAVYSCAAYIRPDTYLSRDYRKYDYWGQGTQVTVSS
notes: Bivalent Nanobody; also called RANKL13-9GS-RANKL13
As for B5, the IC50 in experiment [1] is 19 pM; in experiment [2] it was 23 pM.

B6: RANKL183biv (VHH)
chain: EVQLVESGGGLVQAGGSLRLSCAASGRTFSRSAMGWFRQAPGKEREFVGFITGSGGTTYYGESVKGRFTISRDNAQNPVYLQMNSLKPEDTAVYYCGVYRRTYISSTYSESSEYDYWGQGTQVTVSSGGGGSGGGGSGGGGSGGGGSGGGGSGGGGSEVQLVESGGGLVQAGGSLRLSCAASGRTFSRSAMGWFRQAPGKEREFVGFITGSGGTTYYGESVKGRFTISRDNAQNPVYLQMNSLKPEDTAVYYCGVYRRTYISSTYSESSEYDYWGQGTQVTVSS
notes: Bivalent Nanobody; also called RANKL18-30GS-RANKL18
On to B6, for which the 50% inhibitory concentration (IC50) in experiment [1] is 49 pM; in experiment [2] it was 52 pM.

B7: RANKL94biv (VHH)
chain: EVQLVESGGGLVQAGGSLRLTCAASGRTFRSYAMGWFRQAPGKEREFVAAINYSGGSTNYADSVKGRFTISRDNAKNTLYLQMNSLEPEDTAVYYCAAGSGYASLSYYSTERAYTYWGQGTQVTVSSGGGGSGGGGSGGGGSEVQLVESGGGLVQAGGSLRLTCAASGRTFRSYAMGWFRQAPGKEREFVAAINYSGGSTNYADSVKGRFTISRDNAKNTLYLQMNSLEPEDTAVYYCAAGSGYASLSYYSTERAYTYWGQGTQVTVSS
notes: Bivalent Nanobody; also called RANKL9-15GS-RANKL9
B7: the 50% inhibitory concentration (IC50) in experiment [1] is 72 pM; in experiment [2], 30 pM.

B8: RANKL13hum4 (VHH, name in Kabat numbering)
VHH: EVQLVESGGGLVQPGGSLRLSCAASGRTFRSYPMGWFRQAPGKGREFVASITGSGGSTYYADSVKGRFTISRDNAKNTLYLQMNSLRPEDTAVYYCAAYIRPDTYLSRDYRKYDYWGQGTLVTVSS
B8 displayed a 50% inhibitory concentration (IC50) in experiment [3] of 223 pM. The dissociation rate constant (koff) in experiment [4] is 0.000204 s⁻¹. In experiment [5], this molecule registered a Kd of 538 pM and a kon of 379000 M⁻¹ s⁻¹.

B9: RANKL18hum6Bi_30 (VHH)
chain: EVQLVESGGGLVQPGGSLRLSCAASGRTFSRSAMGWFRQAPGKGREFVGFITGSGGTTYYADSVKGRFTISRDNAQNPVYLQMNSLRPEDTAVYYCAVYRRTYISSTYSESSEYDYWGQGTLVTVSSGGGGSGGGGSGGGGSGGGGSGGGGSGGGGSEVQLVESGGGLVQPGGSLRLSCAASGRTFSRSAMGWFRQAPGKGREFVGFITGSGGTTYYADSVKGRFTISRDNAQNPVYLQMNSLRPEDTAVYYCAVYRRTYISSTYSESSEYDYWGQGTLVTVSS
notes: Bivalent humanized Nanobody; also called RANKL18Hum6-30GS-RANKL18Hum6
In the case of B9, the 50% inhibitory concentration (IC50) in experiment [1] is 50 pM; in experiment [2], 38 pM.

B10: RANKL18hum1 (VHH, name in Kabat numbering)
VHH: EVQLVESGGGLVQPGGSLRLSCAASGFTFSRSAMGWFRQAPGKGREFVGFITGSGGTTYYGESVKGRFTISRDNAQNPVYLQMNSLRPEDTAVYYCGVYRRTYISSTYSESSEYDYWGQGTLVTVSS
For the molecule B10, the 50% inhibitory concentration (IC50) in experiment [3] stood at 3150 pM. Besides, the koff in experiment [4] worked out at 0.000236 s⁻¹. Also, in experiment [5], the dissociation constant (Kd) was found to be 1560 pM and the association rate constant (kon) is 151000 M⁻¹ s⁻¹.

B11: RANKL18hum7 (VHH)
VHH: EVQLVESGGGLVQPGGSLRLSCAASGRTFSRSAMGWFRQAPGKGREFVGFITGSGGTTYYADSVKGRFTISRDNAQNPLYLQMNSLRPEDTAVYYCAVYRRTYISSTYSESSEYDYWGQGTLVTVSS
As to B11, the concentration for half-maximal inhibition (IC50) in experiment [3] worked out at 572 pM. In addition, in experiment [4], the koff was 0.00027 s⁻¹. Besides, binding in experiment [5] was put at a Kd of 1500 pM.

B12: RANKL18hum2 (VHH, name in Kabat numbering)
VHH: EVQLVESGGGLVQPGGSLRLSCAASGRTFSRSAMGWFRQAPGKGREFVSFITGSGGTTYYGESVKGRFTISRDNAQNPVYLQMNSLRPEDTAVYYCGVYRRTYISSTYSESSEYDYWGQGTLVTVSS
In experiment [3], B12 gave an IC50 of 3190 pM. In experiment [4], the koff was found to be 0.000173 s⁻¹. In experiment [5], this molecule returned a dissociation constant Kd of 2730 pM and an association rate constant (kon) of 63400 M⁻¹ s⁻¹.

B13: RANKL18hum5 (VHH)
VHH: EVQLVESGGGLVQPGGSLRLSCAASGRTFSRSAMGWFRQAPGKGREFVGFITGSGGTTYYGESVKGRFTISRDNAQNPVYLQMNSLRPEDTAVYYCAVYRRTYISSTYSESSEYDYWGQGTLVTVSS
Turning to B13, inhibition in experiment [3] was half-maximal at 253 pM (IC50). In experiment [4], this molecule showed a koff of 9.94e-05 s⁻¹. In addition, in experiment [5], the Kd amounted to 232 pM and the on-rate constant (kon) was determined as 429000 M⁻¹ s⁻¹.

B14: RANKL181biv (VHH)
chain: EVQLVESGGGLVQAGGSLRLSCAASGRTFSRSAMGWFRQAPGKEREFVGFITGSGGTTYYGESVKGRFTISRDNAQNPVYLQMNSLKPEDTAVYYCGVYRRTYISSTYSESSEYDYWGQGTQVTVSSGGGGSGGGSEVQLVESGGGLVQAGGSLRLSCAASGRTFSRSAMGWFRQAPGKEREFVGFITGSGGTTYYGESVKGRFTISRDNAQNPVYLQMNSLKPEDTAVYYCGVYRRTYISSTYSESSEYDYWGQGTQVTVSS
notes: Bivalent Nanobody; also called RANKL18-9GS-RANKL18
For B14, the figures for the IC50 in experiment [1] and in experiment [2] were 113 pM and 134 pM, respectively.

B15: RANKL93biv (VHH)
chain: EVQLVESGGGLVQAGGSLRLTCAASGRTFRSYAMGWFRQAPGKEREFVAAINYSGGSTNYADSVKGRFTISRDNAKNTLYLQMNSLEPEDTAVYYCAAGSGYASLSYYSTERAYTYWGQGTQVTVSSGGGGSGGGGSGGGGSGGGGSGGGGSGGGGSEVQLVESGGGLVQAGGSLRLTCAASGRTFRSYAMGWFRQAPGKEREFVAAINYSGGSTNYADSVKGRFTISRDNAKNTLYLQMNSLEPEDTAVYYCAAGSGYASLSYYSTERAYTYWGQGTQVTVSS
notes: Bivalent Nanobody; also called RANKL9-30GS-RANKL9
With B15, the IC50 in experiment [1] was 66 pM; in experiment [2], 48 pM.
